The source of these data is publication PMC7911018, “Effect of Humanizing Mutations on the Stability of the Llama Single-Domain Variable Region” (Biomolecules, 2021).

The experiment has as its target T1, HER2 ectodomain-Fc (96 kDa) (Homo sapiens, UniProt P04626).
T1 construct: human epidermal growth factor receptor 2 (HER2), ectodomain; also called extracellular domain of HER2; human epidermal growth factor receptor 2
Description: SPR; Biacore T100, 25 °C; HER2 ectodomain-Fc amine-coupled on a CM5 chip at 1270 RU; VHHs injected as analytes at 7 concentrations between 250 and 3.5 nM in 20 mM Hepes, 150 mM NaCl, 3 mM EDTA, 0.005% Tween 20, pH 7.4; 1:1 Langmuir fit. To be noted: both partners purified.

B1: VHH A10 (anti-HER2 nanobody) (VHH)
VHH: DVQLQASGGGFVQPGGSLRLSCAASGATSNISNMGWFRQAPGKEREFVSAISRAESRPLYYADSVKGRFTISRDNSKNTVYLQMNSLRAEDTATYYCAYMPLVRHKAYWGQGTQVTVSS
notes: anti-HER2 VHH from a synthetic library with camelid FW2 hallmarks FERF; also called A10 wt; source: expressed in bacteria, purified (IMAC, SEC)
For the molecule B1, the binding result is recorded as “binds”.
